Source: the RNAGym collection of RNA variant scans (doi:10.1093/nar/gkz1192)

B1: CPEB3 Ribozyme (parent)
chain: UAACAGGGGGCCACAGCAGAAGCGUUCACGUCGCAGCCCCUGUCAGAUUCUGGUGAAUCUGCGAAUUCUGCUGUAUAUCUC

Variants of: B1
Test: self-cleavage, relative activity (ratio to wild type); higher = more cleavage; in vitro, sequencing
In short: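 Libraries of CPEB3 self-cleaving ribozyme mutants came from rounds of error-prone PCR and carried barcodes, which DNA sequencing matched to variants. In vitro transcription used T7 RNA polymerase at 37°C for 5 hours, with a further 15 min in DNase I before EDTA stopped the reaction; the ribozymes cleaved during both steps. The RNA was reverse transcribed with template switching and sequenced on Illumina. Relative activity is the cleaved/total read fraction of a variant divided by that of the unmutated ribozyme, averaged over three batches with at least 5 reads.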
Variant UAACAGGGGGCCACAGCAGAAGCGUUCACGUCGCGGCCCCUGUCAGAUUCUGGUGAAUCUGCGAAUUCUGCAGUAUAUCUC [A35G U72A] has a self-cleavage of 1.22.
UAACAGGGGGCCACAGCAGAAGCGUUCACGUCGCGGCCCCUGUCAGAUUCUGGUGAAUCUGCGAAUUCUGCGGUAUAUCUC [A35G U72G] showed a self-cleavage of 1.29.
UAACAGGGGGCCACAGCAGAAGCGUUCACGUCGCGGCCCCUGUCAGAUUCUGGUGAAUCUGCGAAUUCUGCCGUAUAUCUC [A35G U72C] gave a self-cleavage of 1.26.
In the case of UAACAGGGGGCCACAGCAGAAGCGUUCACGUCGCGGCCCCUGUCAGAUUCUGGUGAAUCUGCGAAUACUGCUGUAUAUCUC [A35G U67A], the self-cleavage is reported as 1.2.
In the case of UAACAGGGGGCCACAGCAGAAGCGUUCACGUCGCGGCCCCUGUCAGAUUCUGGUGAAUCUGCGAAUGCUGCUGUAUAUCUC [A35G U67G], the self-cleavage is reported as 1.11.
In the case of UAACAGGGGGCCACAGCAGAAGCGUUCACGUCGCGGCCCCUGUCAGAUUCUGGUGAAUCUGCGAAUCCUGCUGUAUAUCUC [A35G U67C], the self-cleavage is reported as 0.56.
In the case of UAACAGGGGGCCACAGCAGAAGCGUUCACGUCGCGGCCCCUGUCAGAUUCUGGUGAAUCUGCGAAUUCUGCUGUAUACCUC [A35G U78C], the self-cleavage is reported as 1.3.
UAACAGGGGGCCACAGCAGAAGCGUUCACGUCGCGGCCCCUGUCAGAUUCUGGUGAAUCUGCGAAUUCUGCUGUAUAGCUC [A35G U78G] gave a self-cleavage of 1.29.
With UAACAGGGGGCCACAGCAGAAGCGUUCACGUCGCGGCCCCUGUCAGAUUCUGGUGAAUCUGCGAAUUCUGCUGUAUAACUC [A35G U78A] the self-cleavage was 1.35.
Variant UAACAGGGGGCCACAGCAGAAGCGUUCACGUCGCGGCCCCUGUCAGAUUCUGGUGAAGCUGCGAAUUCUGCUGUAUAUCUC [A35G U58G] has a self-cleavage of 1.09.
UAACAGGGGGCCACAGCAGAAGCGUUCACGUCGCGGCCCCUGUCAGAUUCUGGUGAACCUGCGAAUUCUGCUGUAUAUCUC [A35G U58C] gave a self-cleavage of 1.23.
For UAACAGGGGGCCACAGCAGAAGCGUUCACGUCGCGGCCCCUGUCAGAUUCUGGUGAAACUGCGAAUUCUGCUGUAUAUCUC [A35G U58A], the self-cleavage was 1.07.
For UAACAGGGGGCCACAGCAGAAGCGUUCACGUCGCGGCCCCUGUCAGAUUCAGGUGAAUCUGCGAAUUCUGCUGUAUAUCUC [A35G U51A], the self-cleavage was 1.32.
With UAACAGGGGGCCACAGCAGAAGCGUUCACGUCGCGGCCCCUGUCAGAUUCCGGUGAAUCUGCGAAUUCUGCUGUAUAUCUC [A35G U51C] the self-cleavage was 1.27.
Work on UAACAGGGGGCCACAGCAGAAGCGUUCACGUCGCGGCCCCUGUCAGAUUCGGGUGAAUCUGCGAAUUCUGCUGUAUAUCUC [A35G U51G] yielded a self-cleavage of 1.28.
With UAACAGGGGGCCACAGCAGAAGCGUUCACGUCGCGGCCCCUGUCAGAUCCUGGUGAAUCUGCGAAUUCUGCUGUAUAUCUC [A35G U49C] the self-cleavage was 1.05.
With UAACAGGGGGCCACAGCAGAAGCGUUCACGUCGCGGCCCCUGUCAGAUUCUGGAGAAUCUGCGAAUUCUGCUGUAUAUCUC [A35G U54A] the self-cleavage was 1.28.
Variant UAACAGGGGGCCACAGCAGAAGCGUUCACGUCGCGGCCCCUGUCAGAUUCUGGGGAAUCUGCGAAUUCUGCUGUAUAUCUC [A35G U54G] has a self-cleavage of 1.32.
For UAACAGGGGGCCACAGCAGAAGCGUUCACGUCGCGGCCCCUGUCAGAUUCUGGCGAAUCUGCGAAUUCUGCUGUAUAUCUC [A35G U54C], the self-cleavage was 1.29.
UAACAGGGGGCCACAGCAGAAGCGUUCACGUCGCGGCCCCUGUCAGAUUCUGGUGAAUCAGCGAAUUCUGCUGUAUAUCUC [A35G U60A] showed a self-cleavage of 1.14.
UAACAGGGGGCCACAGCAGAAGCGUUCACGUCGCGGCCCCUGUCAGAUUCUGGUGAAUCGGCGAAUUCUGCUGUAUAUCUC [A35G U60G] gave a self-cleavage of 1.04.
UAACAGGGGGCCACAGCAGAAGCGUUCACGUCGCGGCCCCUGUCAGAUUCUGGUGAAUCCGCGAAUUCUGCUGUAUAUCUC [A35G U60C] showed a self-cleavage of 1.03.
Variant UAACAGGGGGCCACAGCAGAAGCGUUCACGUCGCGGCCCCUGUCAGAUUCUGGUGAAUCUGCGAAUUCCGCUGUAUAUCUC [A35G U69C] has a self-cleavage of 1.2.
With UAACAGGGGGCCACAGCAGAAGCGUUCACGUCGCGGCCCCUGUCAGAUUCUGGUGAAUCUGCGAAUUCGGCUGUAUAUCUC [A35G U69G] the self-cleavage was 1.33.
For UAACAGGGGGCCACAGCAGAAGCGUUCACGUCGCGGCCCCUGUCAGAUUCUGGUGAAUCUGCGAAUUCAGCUGUAUAUCUC [A35G U69A], the self-cleavage was 1.22.
For UAACAGGGGGCCACAGCAGAAGCGUUCACGUCGCGGCCCCUGUCAGAUUCUGGUGAAUCUGCGAAUUCUGCUGCAUAUCUC [A35G U74C], the self-cleavage was 1.29.
For UAACAGGGGGCCACAGCAGAAGCGUUCACGUCGCGGCCCCUGUCAGAUUCUGGUGAAUCUGCGAAUUCUGCUGAAUAUCUC [A35G U74A], the self-cleavage was 1.33.
Variant UAACAGGGGGCCACAGCAGAAGCGUUCACGUCGCGGCCCCUGUCAGAUUCUGGUGAAUCUGCGAAUUCUGCUGGAUAUCUC [A35G U74G] has a self-cleavage of 1.27.
For UAACAGGGGGCCACAGCAGAAGCGUUCACGUCGCGGCCCCUGUCAGAUUCUGGUGAAUCUGCGAAGUCUGCUGUAUAUCUC [A35G U66G], the self-cleavage was 1.26.
Variant UAACAGGGGGCCACAGCAGAAGCGUUCACGUCGCGGCCCCUGUCAGAUUCUGGUGAAUCUGCGAAAUCUGCUGUAUAUCUC [A35G U66A] has a self-cleavage of 1.34.
For UAACAGGGGGCCACAGCAGAAGCGUUCACGUCGCGGCCCCUGUCAGAUUCUGGUGAAUCUGCGAACUCUGCUGUAUAUCUC [A35G U66C], the self-cleavage was 1.17.
Variant UAACAGGGGGCCACAGCAGAAGCGUUCACGUCGCGGCCCCUGUCAGAUUCUGGUGAAUCUGCGAAUUCUGCUGUAAAUCUC [A35G U76A] has a self-cleavage of 1.33.
UAACAGGGGGCCACAGCAGAAGCGUUCACGUCGCGGCCCCUGUCAGAUUCUGGUGAAUCUGCGAAUUCUGCUGUACAUCUC [A35G U76C] showed a self-cleavage of 1.29.
UAACAGGGGGCCACAGCAGAAGCGUUCACGUCGCGGCCCCUGUCAGAUUCUGGUGAAUCUGCGAAUUCUGCUGUAGAUCUC [A35G U76G] gave a self-cleavage of 1.49.
